T1: human FcγRIIa type H (human, UniProt P12318 36-217)
T1 construct: also called FcgRIIaH; FcγRIIa(H)
T1 sequence: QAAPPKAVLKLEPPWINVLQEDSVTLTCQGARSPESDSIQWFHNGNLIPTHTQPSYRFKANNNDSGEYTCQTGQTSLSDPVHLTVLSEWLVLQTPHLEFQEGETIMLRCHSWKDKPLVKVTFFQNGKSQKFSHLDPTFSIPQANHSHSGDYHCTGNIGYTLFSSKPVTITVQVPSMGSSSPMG

T2: human FcγRIIa type R (human, UniProt P12318 36-217)
T2 construct: also called FcgRIIaR; FcγRIIa(R)
T2 chain: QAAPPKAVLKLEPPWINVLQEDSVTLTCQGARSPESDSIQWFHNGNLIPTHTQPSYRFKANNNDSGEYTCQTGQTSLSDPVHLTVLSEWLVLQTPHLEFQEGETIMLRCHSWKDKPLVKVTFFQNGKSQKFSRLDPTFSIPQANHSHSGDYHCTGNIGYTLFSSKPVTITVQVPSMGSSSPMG

T3: human FcγRIIb (human, UniProt P31994 43-217, limits assumed)
T3 construct: also called FcgRIIb; FcγIIB
T3 sequence: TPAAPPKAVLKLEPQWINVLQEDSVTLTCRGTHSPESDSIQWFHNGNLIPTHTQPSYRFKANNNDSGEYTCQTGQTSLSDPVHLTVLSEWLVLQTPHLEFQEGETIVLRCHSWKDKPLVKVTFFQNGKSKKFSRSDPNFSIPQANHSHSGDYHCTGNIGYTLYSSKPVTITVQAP


Legend:
Test in all cases: SPR (Biacore), FcγR over captured antibody; binding amount divided by that of IL6R-BF648/IL6R-L x 100
[1] = biological target: T4, human FcγRIIIa type V (human, UniProt P08637 17-208, limits assumed)
T4 construct: also called FcgRIIIaV; FcγRIIIa(V)
Experimental: (§1) According to the following method, relative binding activities were calculated for the results of analyzing interactions with the respective FcγRs.

[2] = biological target: T5, human FcγRIa (human, UniProt P12314 16-292, limits assumed)
T5 construct: also called FcgRIa; FcγRI (CD64)
Experimental: as §1

[3] = biological target: T1, human FcγRIIa type H
Experimental: as §1

[4] = biological target: T2, human FcγRIIa type R
Experimental: as §1

[5] = biological target: T3, human FcγRIIb
Experimental: as §1

T4 sequence (P08637 other isoform, or with tags, fused parts or gaps limits assumed): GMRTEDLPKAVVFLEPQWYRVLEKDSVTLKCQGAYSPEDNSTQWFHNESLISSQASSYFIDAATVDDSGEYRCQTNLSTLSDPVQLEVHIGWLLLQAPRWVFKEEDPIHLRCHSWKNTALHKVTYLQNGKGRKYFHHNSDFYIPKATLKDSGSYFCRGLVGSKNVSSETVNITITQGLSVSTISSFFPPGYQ
T5 sequence (P12314 16-292 limits assumed): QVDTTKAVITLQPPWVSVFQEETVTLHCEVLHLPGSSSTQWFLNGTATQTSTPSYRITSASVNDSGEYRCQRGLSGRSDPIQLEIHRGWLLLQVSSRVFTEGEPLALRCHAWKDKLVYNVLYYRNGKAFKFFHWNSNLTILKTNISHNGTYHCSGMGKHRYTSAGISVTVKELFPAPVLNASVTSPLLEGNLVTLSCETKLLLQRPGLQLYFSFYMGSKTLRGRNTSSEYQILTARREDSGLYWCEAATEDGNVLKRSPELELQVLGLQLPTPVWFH

| Binder | relative binding activity [1] | relative binding activity [2] | relative binding activity [3] | relative binding activity [4] | relative binding activity [5] |
| --- | --- | --- | --- | --- | --- |
| IL6R-BP131/IL6R-L (antibody, human IgG1, name in EU numbering, copies: 2 + 2) heavy: QVQLQESGPGLVKPSETLSLTCAVSGHSISHDHAWSWVRQPPGEGLEWIGFISYSGITNYNPSLQGRVTISRDNSKNTLYLQMNSLRAEDTAVYYCARSLARTTAMDYWGEGTLVTVSSASTKGPSVFPLAPSSKSTSGGTAALGCLVKDYFPEPVTVSWNSGALTSGVHTFPAVLQSSGLYSLSSVVTVPSSSLGTQTYICNVNHKPSNTKVDKKVEPKSCDKTHTCPPCPAPDLLGDDSVFLFPPKPKDTLMISRTPEVTCVVVDVSHEDPEVKFNWYVDGVEVHNAKTKPREEQYNSTYRVVSVLTVLHQDWLNGKEYKCKVSNKALPKPIEKTISKAKGQPREPQVYTLPPSRDELTKNQVSLTCLVKGFYPSDIAVEWESNGQPENNYKTTPPVLDSDGSFFLYSKLTVDKSRWQQGNVFSCSVMHEALHNHYTQESLSLSP light: DIQMTQSPSSLSASVGDRVTITCRASQDISSYLNWYQQKPGKAPKLLIYYTSRLHSGVPSRFSGSGSGTDFTFTISSLQPEDIATYYCQQGNTLPYTFGQGTKVEIK | 118 relative (IL6R-BF648/IL6R-L = 100) | 33 relative (IL6R-BF648/IL6R-L = 100) | 253 relative (IL6R-BF648/IL6R-L = 100) | 364 relative (IL6R-BF648/IL6R-L = 100) | – |
| IL6R-BP151/IL6R-L (antibody, human IgG1, name in EU numbering, the list runs over r36 and r37; copies: 2 + 2) heavy: QVQLQESGPGLVKPSETLSLTCAVSGHSISHDHAWSWVRQPPGEGLEWIGFISYSGITNYNPSLQGRVTISRDNSKNTLYLQMNSLRAEDTAVYYCARSLARTTAMDYWGEGTLVTVSSASTKGPSVFPLAPSSKSTSGGTAALGCLVKDYFPEPVTVSWNSGALTSGVHTFPAVLQSSGLYSLSSVVTVPSSSLGTQTYICNVNHKPSNTKVDKKVEPKSCDKTHTCPPCPAPDYLGDDSVFLFPPKPKDTLMISRTPEVTCVVVDVSHEDPEVKFNWYVDGVEVHNAKTKPREEQYNSTYRVVSVLTVLHQDWLNGKEYKCKVSNAALPRPIEKTISKAKGQPREPQVYTLPPSRDELTKNQVSLTCLVKGFYPSDIAVEWESNGQPENNYKTTPPVLDSDGSFFLYSKLTVDKSRWQQGNVFSCSVMHEALHNHYTQESLSLSP light: DIQMTQSPSSLSASVGDRVTITCRASQDISSYLNWYQQKPGKAPKLLIYYTSRLHSGVPSRFSGSGSGTDFTFTISSLQPEDIATYYCQQGNTLPYTFGQGTKVEIK | 221 relative (IL6R-BF648/IL6R-L = 100) | 39 relative (IL6R-BF648/IL6R-L = 100) | 621 relative (IL6R-BF648/IL6R-L = 100) | 705 relative (IL6R-BF648/IL6R-L = 100) | – |
| IL6R-BP176/IL6R-L (antibody, human IgG1, name in EU numbering, copies: 2 + 2) heavy: QVQLQESGPGLVKPSETLSLTCAVSGHSISHDHAWSWVRQPPGEGLEWIGFISYSGITNYNPSLQGRVTISRDNSKNTLYLQMNSLRAEDTAVYYCARSLARTTAMDYWGEGTLVTVSSASTKGPSVFPLAPSSKSTSGGTAALGCLVKDYFPEPVTVSWNSGALTSGVHTFPAVLQSSGLYSLSSVVTVPSSSLGTQTYICNVNHKPSNTKVDKKVEPKSCDKTHTCPPCPAPDLLGGDSVFLFPPKPKDTLMISRTPEVTCVVVDVSHEDPEVKFNWYVDGVEVHNAKTKPREEQYNSTYRVVSVLTVLHQDWLNGKEYKCKVSNDALPKPIEKTISKAKGQPREPQVYTLPPSRDELTKNQVSLTCLVKGFYPSDIAVEWESNGQPENNYKTTPPVLDSDGSFFLYSKLTVDKSRWQQGNVFSCSVMHEALHNHYTQESLSLSP light: DIQMTQSPSSLSASVGDRVTITCRASQDISSYLNWYQQKPGKAPKLLIYYTSRLHSGVPSRFSGSGSGTDFTFTISSLQPEDIATYYCQQGNTLPYTFGQGTKVEIK | – | 102 relative (IL6R-BF648/IL6R-L = 100) | 128 relative (IL6R-BF648/IL6R-L = 100) | 201 relative (IL6R-BF648/IL6R-L = 100) | 147 relative (IL6R-BF648/IL6R-L = 100) |
| IL6R-BP178/IL6R-L (antibody, human IgG1, name in EU numbering, the list runs over r43 and r44; copies: 2 + 2) heavy: QVQLQESGPGLVKPSETLSLTCAVSGHSISHDHAWSWVRQPPGEGLEWIGFISYSGITNYNPSLQGRVTISRDNSKNTLYLQMNSLRAEDTAVYYCARSLARTTAMDYWGEGTLVTVSSASTKGPSVFPLAPSSKSTSGGTAALGCLVKDYFPEPVTVSWNSGALTSGVHTFPAVLQSSGLYSLSSVVTVPSSSLGTQTYICNVNHKPSNTKVDKKVEPKSCDKTHTCPPCPAPDLLGDDSVFLFPPKPKDTLMISRTPEVTCVVVDVSHEDGEVKFNWYVDGVEVHNAKTKPREEQYNSTYRVVSVLTVLHQDWLNGKEYKCKVSNKALPKPIEKTISKAKGQPREPQVYTLPPSRDELTKNQVSLTCLVKGFYPSDIAVEWESNGQPENNYKTTPPVLDSDGSFFLYSKLTVDKSRWQQGNVFSCSVMHEALHNHYTQESLSLSP light: DIQMTQSPSSLSASVGDRVTITCRASQDISSYLNWYQQKPGKAPKLLIYYTSRLHSGVPSRFSGSGSGTDFTFTISSLQPEDIATYYCQQGNTLPYTFGQGTKVEIK | – | 51 relative (IL6R-BF648/IL6R-L = 100) | 259 relative (IL6R-BF648/IL6R-L = 100) | 653 relative (IL6R-BF648/IL6R-L = 100) | 179 relative (IL6R-BF648/IL6R-L = 100) |
| IL6R-BP152/IL6R-L (antibody, human IgG1, name in EU numbering, the list runs over r38 and r39; copies: 2 + 2) heavy: QVQLQESGPGLVKPSETLSLTCAVSGHSISHDHAWSWVRQPPGEGLEWIGFISYSGITNYNPSLQGRVTISRDNSKNTLYLQMNSLRAEDTAVYYCARSLARTTAMDYWGEGTLVTVSSASTKGPSVFPLAPSSKSTSGGTAALGCLVKDYFPEPVTVSWNSGALTSGVHTFPAVLQSSGLYSLSSVVTVPSSSLGTQTYICNVNHKPSNTKVDKKVEPKSCDKTHTCPPCPAPDYLGDDSVFLFPPKPKDTLMISRTPEVTCVVVDVSHEDPEVKFNWYVDGVEVHNAKTKPREEQDNSTYRVVSVLTVLHQDWLNGKEYKCKVSNAALPRPIEKTISKAKGQPREPQVYTLPPSRDELTKNQVSLTCLVKGFYPSDIAVEWESNGQPENNYKTTPPVLDSDGSFFLYSKLTVDKSRWQQGNVFSCSVMHEALHNHYTQESLSLSP light: DIQMTQSPSSLSASVGDRVTITCRASQDISSYLNWYQQKPGKAPKLLIYYTSRLHSGVPSRFSGSGSGTDFTFTISSLQPEDIATYYCQQGNTLPYTFGQGTKVEIK | – | 34 relative (IL6R-BF648/IL6R-L = 100) | 548 relative (IL6R-BF648/IL6R-L = 100) | 638 relative (IL6R-BF648/IL6R-L = 100) | 178 relative (IL6R-BF648/IL6R-L = 100) |
| IL6R-BP146/IL6R-L (antibody, human IgG1, name in EU numbering, copies: 2 + 2) heavy: QVQLQESGPGLVKPSETLSLTCAVSGHSISHDHAWSWVRQPPGEGLEWIGFISYSGITNYNPSLQGRVTISRDNSKNTLYLQMNSLRAEDTAVYYCARSLARTTAMDYWGEGTLVTVSSASTKGPSVFPLAPSSKSTSGGTAALGCLVKDYFPEPVTVSWNSGALTSGVHTFPAVLQSSGLYSLSSVVTVPSSSLGTQTYICNVNHKPSNTKVDKKVEPKSCDKTHTCPPCPAPEYLGDDSVFLFPPKPKDTLMISRTPEVTCVVVDVSHEDPEVKFNWYVDGVEVHNAKTKPREEQYNSTYRVVSVLTVLHQDWLNGKEYKCKVSNAALPAPIEKTISKAKGQPREPQVYTLPPSRDELTKNQVSLTCLVKGFYPSDIAVEWESNGQPENNYKTTPPVLDSDGSFFLYSKLTVDKSRWQQGNVFSCSVMHEALHNHYTQESLSLSP light: DIQMTQSPSSLSASVGDRVTITCRASQDISSYLNWYQQKPGKAPKLLIYYTSRLHSGVPSRFSGSGSGTDFTFTISSLQPEDIATYYCQQGNTLPYTFGQGTKVEIK | – | – | 203 relative (IL6R-BF648/IL6R-L = 100) | 445 relative (IL6R-BF648/IL6R-L = 100) | 156 relative (IL6R-BF648/IL6R-L = 100) |
| IL6R-BP181/IL6R-L (antibody, human IgG1, name in EU numbering, the list runs over r48 and r49; copies: 2 + 2) heavy: QVQLQESGPGLVKPSETLSLTCAVSGHSISHDHAWSWVRQPPGEGLEWIGFISYSGITNYNPSLQGRVTISRDNSKNTLYLQMNSLRAEDTAVYYCARSLARTTAMDYWGEGTLVTVSSASTKGPSVFPLAPSSKSTSGGTAALGCLVKDYFPEPVTVSWNSGALTSGVHTFPAVLQSSGLYSLSSVVTVPSSSLGTQTYICNVNHKPSNTKVDKKVEPKSCDKTHTCPPCPAPDLLGGDSVFLFPPKPKDTLMISRTPEVTCVVVDVSHEDGEVKFNWYVDGVEVHNAKTKPREEQYNSTYRVVSVLTVLHQDWLNGKEYKCKVSNAALPKPIEKTISKAKGQPREPQVYTLPPSRDELTKNQVSLTCLVKGFYPSDIAVEWESNGQPENNYKTTPPVLDSDGSFFLYSKLTVDKSRWQQGNVFSCSVMHEALHNHYTQESLSLSP light: DIQMTQSPSSLSASVGDRVTITCRASQDISSYLNWYQQKPGKAPKLLIYYTSRLHSGVPSRFSGSGSGTDFTFTISSLQPEDIATYYCQQGNTLPYTFGQGTKVEIK | 122 relative (IL6R-BF648/IL6R-L = 100) | 108 relative (IL6R-BF648/IL6R-L = 100) | 150 relative (IL6R-BF648/IL6R-L = 100) | 362 relative (IL6R-BF648/IL6R-L = 100) | – |
